Measured values published in the nanobody polyreactivity screen of Harvey et al. (2022).

Experiment: yeast display, Sf9 membrane polyspecificity reagent, FACS + sequencing; frameworks hold sequencing errors
Procedure, shortened: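 Using colony PCR, genes from sorted yeast display clones were amplified, then sequenced on MiSeq at 2 × 250 and filtered by CDR length. The clones had been stained with 10% biotinylated, detergent-solubilized Sf9 membrane reagent for 1 hour at 4 °C and sorted by FACS into low and high (top ~1%) gates on anti-HA and streptavidin fluorescence. Polyreactivity labels come from the gate of origin.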

Row | Sequence | polyreactivity (PSR sort gate)
1 | QVQLVESGGALVQAGGSLRLSCAASAFIFRINAMGWYRQAPGKERELVAAISGSGGRTYYADSVKGRFTISRDNAKNTVYLQMNSLKPVDTAVYYCARSSGYGFNYWGQGTQVTVSS | high polyreactivity
2 | QVQLVESGGALVQAGGSLRLSCAASAGNFTGYAMGWSRQAPGKERELVATITSGGSTNYADSVKGRFTISRDNAKNSFYFQLNSLKPEDTAVYYCALDYIGDTPIWQYDYWGQGTQVTVSS | low polyreactivity
3 | QVQLVESGGALVQAGGSLRLSCAASGFIFHYYAMGWYRQAPGKERELVAAISKTGGSTYYADSVKGRFTISRDNAKNTVYLQMNSLKPEDTAVYYCAVARSAYYRGNHWGQGTQVTVSS | high polyreactivity
4 | QVQLVESGGALVQAGGSLRLSCAASGGTFYTYAMGWYRQAPGKERELVATITRRGGSTYYADSVKGRFTISRDNAKNTVYLQMKSLKPEDTAVYYCAARSYISTRPIMGYWGQGTQVTVSS | high polyreactivity
5 | QVQLVESGGALVQAGGSLRLSCAASGLTFIAYALGWYRQAPGKERELVASIDSGGGTNYADSVKGRFTISRDNAKNTVYLQMNSLKREDTAVYYCAAESPLYWVDDFESGWRYYYWGQGTHVTVSS | low polyreactivity
6 | QVQLVESGGALVQAGGSLRLSCAASGNTFIPNAMGWYRQAPGKERELVAAIRASGGSTYYADSVKGRFTISRDNAKNTVYLQMNSLKPEDTAVYYCNADIWYKTYDYWGQGTQVTVSS | low polyreactivity
7 | QVQLVESGGALVQAGGSLRLSCAASGRIFRAYAMGWYRQAPGKERELVAAISRSGGSTYYADSVKGRFTISRDNAKNTVYLQMNSLKPEDTAVYYCAAEYYFIDTGEYDYWGQGTQVSVSS | high polyreactivity
8 | QVQLVESGGALVQAGGSLRLSCAASGRILRGNAMGWYRPAPGKERELVADINYSDGSTYYADSVKGRFTISRDNAKNTVYLQMNSLKPEDTAVYYCAKKNPLVFTSGMDYWGQGTQVTVSS | low polyreactivity
9 | QVQLVESGGALVQAGGSLRLSCAASGRTFYFYTMGWYRQAPGKERDLVAAISWSGGSTYYADSVKGRFTISRDTAKNNFYLQMKRLKPEDTAVYYCAASSRWEQSKDQFYYWGQGTHVTVSS | low polyreactivity
10 | QVQLVESGGALVQAGGSLRLSCAASGRTYRWYAMGWYRQAPGKESELVARIRGSGGSTYADSVKGRFTISRDNAKNTVNLEMNSLTPEDTAVYYCARKVTGRNGAQFYVSYYYWGQGTQVPVSS | low polyreactivity
11 | QVQLVESGGALVQAGGSLRLSCAASGSIFDQYTMRWYRQAPGKDRELVAAIRFSGGSTSYADSVKGRFTISRDNAKNTVYLQMNSLKPDDTAVYYCNADSQPWRFGYWGQGTQVTVSS | low polyreactivity
12 | QVQLVESGGALVQAGGSLRLSCAASGSIFYKYTMGWYRQAPGKERELVAAISRSGGSTYYADSVKGRFTISRDNAKNTVYLQMNSLKTEDTAVYYCATTGRVPGEYWGQGTQVTVSS | high polyreactivity
13 | QVQLVESGGALVQAGGSLRLSCAASGSTFPTNAMGWYRQAPGKERELVAAITSSTGSTYYADSVKGRFTISRDNAKNTVYLQMNSLKPEDTAVYSCAKSKQWQRYLRGNYWGQGTQVTVSS | low polyreactivity
14 | QVQLVESGGALVQAGGSLRLSCAASGSTFSWYAMGWYRQAPGKERELVAAITTRGGSTYYADSVKGRFTISRDNAKNTVYLQMTRLKPEDTAVYYCAADDGWDFGRGRYDYWGQGTQVTVSS | low polyreactivity
15 | QVQLVESGGALVQAGGSLRLSCAASGSTFVTYAMGWYRQAPGKEREFVAAISWRGGRTYYADSVKGRFSISRDNAKNTVYLQMNSLKPEDTAVYYCAVRTLQRGKHDLGVDYWGQGTQVTVSS | high polyreactivity
16 | QVQLVESGGALVQAGGSLRLSCAASGSTFYYYAMGWYRQAPGKEREFVAAISGGDGTTSYADSVKGRFTISRDNAKKTVYLQMNSLKPEDTAFYYCASPYTSYLYGYDYWGQGTQVTVSS | low polyreactivity
17 | QVQLVESGGALVQAGGSLRLSCAASGSTLVTNAMGWYRKAPGKERELVAAITFSGGTTYYADSVKGRFTISRDNAKNTVYLQMNSLTPEDTAVYYCGAEIWLEYVGYDYWGQGTQVTVSS | high polyreactivity
